Source: patent US20210100858A1

Biological target: Epidermal growth factor receptor (EGFR) on HT29 human colon adenocarcinoma cells (human) (UniProt P00533)
Test: cell-based or functional assay

Hi-D::EGF phage (λF7 phage with maximal EGF surface decoration, generated using SupD E. coli host at 37° C.) (from UniProt P03712 1-110)
EOP of phage recovered from HT29 spheroids, intercellular, 30 min: 0.00156 EOP
EOP of phage recovered from HT29 spheroids, intercellular, 4 h: 0.0572 EOP
EOP of phage recovered from HT29 spheroids, intercellular, 8 h: 0.0183 EOP
EOP of phage recovered from HT29 spheroids, intercellular, 24 h: 0.0113 EOP
EOP of phage recovered from lysed HT29 cells, intracellular, 30 min: 0.00013 EOP
EOP of phage recovered from lysed HT29 cells, intracellular, 4 h: 0.00392 EOP
EOP of phage recovered from lysed HT29 cells, intracellular, 8 h: 0.00147 EOP
EOP of phage recovered from lysed HT29 cells, intracellular, 24 h: 0.000312 EOP
HT29 spheroid diameter on day 20, 10^4 PFU phage: 1330 µm
HT29 spheroid diameter on day 20, 10^8 PFU phage: 422 µm
recovery of phage particles from the interstitial spaces and within cells at 30 min, against wildtype phages: 150 fold
size of HT29 spheroids on day 20 against control spheroids, high concentration of phage: 3 fold
